Source: the domain aggregation screens of Martell et al. (2025)

Assay: soluble fraction after stress (log2 fold change); higher = more stays soluble; pooled small domains, quantitative proteomics
Details: stress: pH 4
How it was run: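 Pooled custom libraries of small protein domains were subjected to pH 4 and measured by high-throughput quantitative proteomics. The log2 fold change in soluble amount per domain is reported, higher values meaning more remained soluble. This is used as a measure of aggregation propensity.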

Sequence | soluble fraction (log2)
HMPPTEQVYRSHVPPQYDGFPIEKYFTTRFSYQDVEEWSRQILAGKIEVNGKTALIGQILSASDLTVTRA | -0.811
HMEQISVPIFTNDELVTFARSYSGELGYKIDDMAVLALYNRISNIQRLDQATTLTEVKDIVDEAVAKSE | -0.63
HMQPSFFEMIRMVESYIKQHFENVGNEFPEIARAIYYGIEEERNIYGTASREDMEELLDEGIPILPVP | -0.937
HMQNNTIAFSKFLQEVDNGRVVQVEIQGNNINGILSDGSKFNTYSPNYPALVEKLSEKNVNIVASPV | 0.385
HMSNYYNILGVNKSSTQDEIKKAFRKKAVEHHPDKGGNEATFKKINEAYNTLSDNNKRHMYDMQQSG | 0.267
HMEEPLIISIDSNGAVYLEVDSFKDQSIEMSSLREIIEKIILANPDIQVVVRGDSEVKYEKVMDLMSILQS | -1.95
HMAEPIEKIIIEGNQRIEALTIQSYLLLRVGEPFNRQLMNQTLKSLYATGYFSDVAVTRVSSSLLVK | -0.0595
HMKEATTSPLDGIPGIGSKRKKALLSHFGSARSVARADIPDLMRVDGISRQVAETIYGWFHN | 0.311
HMPAFWILAVLAGGRRHGYQIMREAALSSEGLVTLKPTTLYAALERLERDGAIQQDGEEIVDGRVRRYYRI | -0.305
HMAKTALEQAQAMVAAYVAAEQQILLGKEVRMGGPGIDRWLRFEDLQEVRAGRKEWESTVTRLQNTAA | -0.769
HMQSLPFSFAKRHGVLLKSINHLHGEAVYRIGANPLSLSEVQRYAGVPLKLSSITVEKFDRLLQETYEHD | -0.436
HMASQFSLIVTQADAGMRLDSLLAVSGAYPSRSAAVKQIEAGKVLVNGLARSKRSIVAPGDTIVYEEIP | -0.0502
HMDTGPSFATRRQEAFNALTQIAASNKEFMNVAGDVLWKVADFPEAQILAQRWRRIIPPNVLGEA | -0.438
HMKNYALHEPMMDRIAKVNALYDAGHTIKYMTARGAVSMVDYYDLTKSQLDSWGAKYHELSVGK | 0.179
HMKPPVQVIGKAVVTASSLNVRTGPGTGHGIITSLPRNTEVELLEQQGEWYKIRRGSTVGYVHGGYLKIN | -0.095
HMQTGRREALEAQLRETGGEAMLARLREIDPEAAARLHPADEKRVIRALEVYEETGKTITQHNLETKAVPP | -0.0698
HMPPFTYHLERAKRKTVGFIVDERGVTVRAPRWVSVSEIEKMLQTKEAWIQKKLTEFHNWQKE | 0.111
HMAAAKDVMDWQNAIRGLTDAKGKPYSPTYLKTVHNQLSALFNHAVRYYGLQVNPAAKAGNMGVEE | 0.00664
HMQVEEKNKKIELYIEGKIKELESNLMYVPNENKKKLLMAFMNRNEDIEIIKTKIDTIFNKSVAAYKENM | -0.894
HMGTVRFYNKERGFGFVVSDDGESVFLPAKALPDGVSDLSPGTRVDYGAALGKKGSQ | -0.203
HMTLFDESGYTARELEIIREVANGLSNKEIADKLFLSEGTVKNYITGILAKENLSHRTALAVYYLTGRK | -0.558
HMNMPYGTVKWFNDAKGFGFIAPEDGSADVFVHFSAINSKGFRSLQEGQRVSYEVTTGPKGAQAAGVTPVT | -0.91
HMRVDYKTQLQELLQRQGAAAPQYRLLVEEGPAHLRRFQVGVYFQGRLLGTGWGRNKKEAEQEAARQALMP | 0.186
HMSSVEQAILETLSKEHSHLTSLQVFEEIRGRLPAVNQSTVYRALERLVEQGVVSVSDMGTHAAVYE | 0.119
HMKRITKKELKQAIVDVFADKPGQSFNYKQLATIIGIKDDPTRRMITDILYELVQEERIVELYRGKFKMEM | -0.335
HMERTVEVVDINDVFSQFLRLYSRERAAGLLSVFKRVEHGLSWQGNPVLLERILSNVFENAIKYAA | -0.424

Sequence | soluble fraction (log2)
HMRRDEDLAHGRELLEKELRKQGLEVSENLKQDKLLEGAKRLGFLEAEDLVVAVGSGKVSAGMAVGRIIG | -0.411
HMPTEPTARELEVTTLLAQGLSNREIAGALFISEHTVRNHLGHVFSKLGVSSRTQAVVRAGQLGWLR | -0.798
HMDSEQLSGLVNMGFSVYQAKTALEMFDNDIERAANYL | -0.871
HMQSYSYYDFQKALQNKTVESVIIEPDKTVPTGTLQIQLKGDTKEELNVSDVTEVEELLQSYDVDYKLRSV | 0.0751
HMQEQIVQGIVKYFDAEKQFGFIAGDDGVDRFFNAKSIQGNAVKTGDRVRFLAISHIRGPRALKISA | -0.566
HMRPRWTEQEVERAKAIKMIYPNAYRLESSDVFVQVWSKEEILLAHVEVDMFPSLRPGQPVELDEIIG | -0.114
HMIGMDMQELIGRYKGDPDEMGKIELAAMSMLKLSEDMSSDHVLQKSKLRQDGLWLLKYVQE | -1.03
HMYFMDEETWESKKTLLNDWYEANPEYADRRAISDGLFKIGDLQPDFRRRHWGSIGVIFADIPNSPMG | -1.37
HMSLDLNENEKTIFDIIQNKKTIRLSELKIEAGLSNKGWDKAMKSLTKQGLAKVVKTEDQLTVKLL | 0.0483
HMGVAASEVHREKKESSLQWRQSYNVATDQRRQGKTYKEITEFLNGAELKNSKGGTWSISGVRKMLM | ≥ 0.43
HMLRLLEIIAGNEVSKEINSQVIKYYKALKNKKIEEINNLTPSYNKLIISFDLKKKNFREMKKIIEDISIN | -0.436
HMSILDEAEFKKIESALLDFITNNIFTVKELLQASRGIKQDKFWKVFQFLQSERKVVVNELGYIEL | -0.513
HMGGRSARVRRAVLDAVVELLGEGGVRAVTIAEVAKRSGVNASSIYRRWRSIDALILDAAQDL | -0.578
HMVNGTPADPYDVLGVESSASPEELRAAWQTLVRQNHPDQLMARGVPLEAVKLAEARLVAINQAWDDLTK | -1.33
HMAKRINVKLIMELSAGGLTQNEIASSRHFSKTSVNLVLKTARELNVSAADLREMSPEEAYRLFFPEK | -0.0837
HMSLNIIEITAKKEINELKSFNIIYFNFDKNNSIYEYKISEREKKEILEIEKIIKNSDNVTNYEIRYSF | -0.685
HMPASGISSEIIYDGILIEENLRQLKKDKAWLMDQLKKKGISSVSEVFLATLNKGGSLYIDKY | -0.0537
HMNNQKATAVKVASGIVNLRSGPATSYETLDTVATGETLSVLAEKDGWFQVSRAGRTGWVAGWVVDVIRE | -0.586
HMRHKSNRRLTAAHQIEQQIQKLLMENTMEAKELKESLNFAAKDIDTVLSWLVDKDKVRINAINQYYWT | -1.28
HMQPVEHLPTTDPLTTSAASEHERYEKVRWWLEEMQRTYETGDEVRAERIRLSLIEQMYKWEGE | -1.09
HMDSAVLQKHLVKLIELHAPIKARNLAKILADEFGKHVDRSAVNSALYSLKAERKVEVNSSYEWSLD | 0.252
HMNLDVEQIKKEALNQLIEIGNENDGIVTIKDFKKIDDISSLDEDDIEDIRNLLIENNIEIFE | -0.641
HMIRDTTMYPVSVNGKKRYEWTVSKSISDDELKQQVLELEEIKKWIEGHEIKKLIFVPGRAINIV | -0.743
HMVQLAEGERYRRIQEANDFINRQQWPGKAAMGRLKDTEKAQYNLWLDYLDALEAVDTSSAPKINWPVPPE | -0.156
HMFERINLIGVNGTTKKRSALVRLLDGEIVKIGVGDSLNGGQVVDISPATLTYLKSGKSIMLTLPK | 0.22
HMKTKTAPPDSIPPAWLKESATLRPDLNQAQIKASAEVFLDHHRAKGTTLADWRPAWRNWIRRERA | 0.0552

Sequence | soluble fraction (log2)
HMFRSNAERAAHLASALPRAEAELAALQARGAATSENIYLRSSYFDALRYTEELRAAKRAQDALQGA | 0.0123
HMFDSYDIYDEAGNTVNTVKGKLSWGHLLEIYDRFDNHIGTVQERVLTFLPKFLMYINGQEIGEIR | -0.334
HMSRSLLAALEKLRESHTGSLPASVLSSAQRRSLESFAQTTKSVQMRPSGRGVVFAIINPEVVDKHWRELS | 0.22
HMTVADMQQKANVKRRNSNSHEAILDATVKLLGSSGYIDFSIEKVASQAGVGKQTIYRWWPSRADLVLEVW | 0.223
HMEYFDDEELDRYKGRTSDSFTDDEAEEFREVMMTMHPEEVKAWNRSLILRDVAMPDQIKDDYIMLAG | -2.41
HMTDLEDDEKKVYRLIVESGEGIDFDTLSERSGFSATELPSILLFLMMKEMIDELPGKIYRYSE | -0.327
HMNTAIPIAIDQLRIGMYIQLGLNWMSHPFPVSSFRIASESQIEILRGLGLAEVRYVPAKSDPVP | -0.911
HMDEWDDGDKPKLKITLYADDDYYFASGFSKSSVSLSGSDGTVTSVSRSSSDTLIVYVTLDALD | -0.845
HMGKPPNNRIHRAKRDYALNLVKEHYPDFGPTLAAEKLAEHHGFTVSRETLRKWMIEDGIWLSRKQRR | -0.0217
HMVDIVLDILKIVAEKQPGNQFSQSILMQYQERGGLSKKQLEGLYGKAKRIPEIPQNKLATLEAIILR | -0.428
HMLQYSQEIEEAQKILQNLGLYKGEIDGINGVNTKSAIKEFQRKSGLIIDGILGPNTTSALSKGAESYITV | 0.0398
HMQLGSILAYKFPQFGGIDGAWQVRDDSNGTGPYIAFWDAKTIGRGMPTEDELTAWAQEYEA | -1.38
HMTIGPALAIGGNKVEMTQQGKIQVTNPQGKIKTLSQDEFKKQLVKNADKIEAGQDFEFKKD | 0.339
HMLQSGSDYLIEQVRMYTATGQREYMDNYFEELNTTRRRENALEYFAEHYGDNDAFTLLKSAMTTSQN | -0.691
HMEKVDAISQSILDVLKKNNGYLAVTDKSDPDEIYGLFQISKKTFKKAIGSLYRDRLISIEEEGIRLR | -0.237
HMGKTEETLQMEKLVEALRRSGRMKYEDAYRIVYAAFPDAKDFEGMLSGAIRAGFIELQMGNDGAFLRAL | -0.67
HMSNIIIYPNPTNDGLIHIKGSKFPFNYALYNLSGKLIETGKKNQIQLNDRGVYLLKIQTEGQTYFKKII | -0.754
HMRGQLADLWLPREQARRAAEIVAARPVPLGSVKTWIARGKLAPRKTGTGPALYRVGALVSLLAKS | 0.133
HMDPAFAQHHDRALSILHSRGYEVHDSDTDLHWARPVLEFEAYKGSLEYKIVMSYPDLNIIEERVD | -0.685
HMSLNSELIARIENLIASIEDKRSWGYGFAESVLGQVQAGATLSPRQLEIIAKLEKENSYSVQLERQ | -0.479
HMQTPPGRYRHYKGGLYEVIATARHSETLEPMTVYRALYGEQGLWVRPAAMFAEDITLEGVRQPRFARI | -1.27
HMRQPAAVEYSTFLDWVHASQVERVVFEGDTIRGVRVTGEGFVTYSPETDNTALIGELKKSRVQISATAP | 0.311
HMANNPISMIKIRQILRLHIQGRSKLQIAAQTGISRNTLKKYLKEFEASKLTYDEISELSDKDLEDLFIK | 0.225
HMEQQEFIVPHDSEGQRLDLFLVSVLGTHSRSQIRKLIVNGHVKLENRAPRPNLPVRAGESVVVSMPEPT | -0.315
